The results in this text go back to the DeepSol protein solubility set.

The data set can be described thus: soluble on expression in E. coli; label from the status in PepcDB or PDB records.
Consider “AEIDTSSIVEMVQGAEDAPVEVIEYASYTCPHCAAFHEGPYKKLKADFIDTGKVRFIYREVYFDRYGLWASMVARCAGPEKFFGISDLIYKGQAEWSRAGGPAEIAEELRKIGRLAGIENDKLEACLGDATKAQTLVAWYQEHATRDDINSTPSFMINGKKVENQAYDGFKALIEAELGN”, for which the “soluble on expression in E. coli” value is on record as “not soluble”.

For the sequence “KTVINVVLQEDTQILDEVVVTALGLKREQKALGYAVTEVKGDDLKAANTISPVAALQGKVAGVEIRQSDGGMFGATKIQIRGASTLKGNNQPIYVIDGVILDNSTSGNTTMDWDAGNNNANDYGNELKNLNPDDFETVSVLKGAAATALYGSRGLNGAVVITTKSGKG”, the “soluble on expression in E. coli” value is on record as “not soluble”.

As to “MSLGDQYTYYMNEKEFSDFKEKSQGNYMGIGIQVAVKDGKIVVISPIQGGPAEKAGIKTGDIILKVNGEPVSGNELDKAVSMMKGTTKENIKLTLYREGHHHHPPLIRIRAPSTSLRPHSSTTTTTTEIRLLTKPERKLSWLLPPLSNN”, the “soluble on expression in E. coli” value is “soluble”.

Regarding “MLTLSPPPAYLVTAANPAPSVAAAAPRALVFGGSGQIGERLLTRLLGRGWQVTAWSRAPRAARAGLIWRQGDLAAPAVAGESFEVIFSCGPLDHFAHWYETNAVSTPRIVAFGSTSVEVKEHSIDAAERDVAQRLANAEQALFSAAKARGAAATVLRPTLVYGAGRDRTLTQIAGLARRTGAFVLPANATGLRQPVHVDDLASAALAVVTQPATHQRSYAVGGGEVLAYTQMVERVLEALPRPARLYQVPPSLFGLALTTAQRLGRLRSLNTAALQRMRDDLVFDLEPARRDFGYAPRAFRPLPEELGIGELEHHHHHH”, the “soluble on expression in E. coli” value is on record as “not soluble”.

With “MGSDKIHHHHHHENLYFQGMKIKVALLDKDKEYLDRLTGVFNTKYADKLEVYSFTDEKNAIESVKEYRIDVLIAEEDFNIDKSEFKRNCGLAYFTGTPGIELIKDEIAICKYQRVDVIFKQILGVYSDMAANVATISGENDKSSVVIFTSPCGGVGTSTVAAACAIAHANMGKKVFYLNIEQCGTTDVFFQAEGNATMSDVIYSLKSRKANLLLKLESCIKQSQEGVSYFSSTKVALDILEISYADIDTLIGNIQGMDNYDEIIVDLPFSLEIEKLKLLSKAWRIIVVNDGSQLSNYKFMRAYESVVLLEQNDDINIIRNMNMIYNKFSNKNSEMLSNISIKTIGGAPRYEHATVRQIIEALTKMEFFEEILQ”, the “soluble on expression in E. coli” value was “soluble”.

For the sequence “MTKIFAYAIREDEKPFLKEWEDAHKDVEVEYTDKLLTPETVALAKGADGVVVYQQLDYIAETLQALADNGITKMSLRNVGVDNIDMAKAKELGFQITNVPVYSPNAIAEHAAIQAARILRQDKAMDEKVARHDLRWAPTIGREVRDQVVGVVGTGHIGQVFMQIMEGFGAKVITYDIFRNPELEKKGYYVDSLDDLYKQADVISLHVPDVPANVHMINDESIAKMKQDVVIVNVSRGPLVDTDAVIRGLDSGKIFGYAMDVYEGEVGIFNEDWEGKEFPDARLADLIARPNVLVTPHTAFYTTHAVRNMVVKAFDNNLELVEGKEAETPVKVG”, the “soluble on expression in E. coli” value is given as “soluble”.

On to “MSHHHHHHSQGGPQDHVEIIPLGGMGEIGKNITVFRFRDEIFVLDGGLAFPEEGMPGVDLLIPRVDYLIEHRHKIKAWVLTHGHEDHIGGLPFLLPMIFGKESPVPIYGARLTLGLLRGKLEEFGLRPGAFNLKEISPDDRIQVGRYFTLDLFRMTHSIPDNSGVVIRTPIGTIVHTGDFKLDPTPIDGKVSHLAKVAQAGAEGVLLLIADATNAERPGYTPSEMEIAKELDRVIGRAPGRVFVTTFASHIHRIQSVIWAAEKYGRKVAMEGRSMLKFSRIALELGYLKVKDRLYTLEEVKDLPDHQVLILATGSQGQPMSVLHRLAFEGHAKMAIKPGDTVILSSSPIPGNEEAVNRVINRLYALGAYVLYPPTYKVHASGHASQEELKLILNLTTPRFFLPWHGEVRHQMNFKWLAESMSRPPEKTLIGENGAVYRLTRETFEKVGEVPHGVLYVDGLGVGDITEEILADRRHMAEEGLVVITALAGEDPVVEVVSRGFVKAGERLLGEVRRMALEALKNGVREKKPLERIRDDIYYPVKKFLKKATGRDPMILPVVIEG”, for which the “soluble on expression in E. coli” value was “soluble”.

For the sequence “MGSDKIHHHHHHMSEKTLYQKLQNIHKKVPYIQKSQQASQYSYAGSSDVLGTIHGLMDEEKLILIPQITNKNTETSQNRKGSTVIFTELMMTMTWVNSDNPDEKLECQWYAQGIDTAGEKGVGKALTYGEKYFLLKFFNVATDDLDPDAFQENVKAQKAPELINDEQKKTLKELFNSMASVTKTPIEKVSKAYLKKVNSDSIEKLQEDTAIGLIELVTNQLNKQTEKAGK”, the “soluble on expression in E. coli” value is reported as “not soluble”.
